Reference: patent US10357539B2, “Use of peptides that block metadherin-SND1 interaction as treatment for cancer” (THE TRUSTEES OF PRINCETON UNIVERSITY, priority 2014, dated 2019)
Substitutions are numbered along the chain they refer to. Names may count otherwise.

T1: MTDH-SND1 interaction (Homo sapiens, UniProt Q7KZF4)
T1 construct: Full-length HA-tagged SND1 was co-expressed with full-length Myc-tagged wild-type (WT) or mutant MTDH in HEK293T cells; expressed in transfected cells; host or cells: 293T
T1 sequence (Q7KZF4 1-910): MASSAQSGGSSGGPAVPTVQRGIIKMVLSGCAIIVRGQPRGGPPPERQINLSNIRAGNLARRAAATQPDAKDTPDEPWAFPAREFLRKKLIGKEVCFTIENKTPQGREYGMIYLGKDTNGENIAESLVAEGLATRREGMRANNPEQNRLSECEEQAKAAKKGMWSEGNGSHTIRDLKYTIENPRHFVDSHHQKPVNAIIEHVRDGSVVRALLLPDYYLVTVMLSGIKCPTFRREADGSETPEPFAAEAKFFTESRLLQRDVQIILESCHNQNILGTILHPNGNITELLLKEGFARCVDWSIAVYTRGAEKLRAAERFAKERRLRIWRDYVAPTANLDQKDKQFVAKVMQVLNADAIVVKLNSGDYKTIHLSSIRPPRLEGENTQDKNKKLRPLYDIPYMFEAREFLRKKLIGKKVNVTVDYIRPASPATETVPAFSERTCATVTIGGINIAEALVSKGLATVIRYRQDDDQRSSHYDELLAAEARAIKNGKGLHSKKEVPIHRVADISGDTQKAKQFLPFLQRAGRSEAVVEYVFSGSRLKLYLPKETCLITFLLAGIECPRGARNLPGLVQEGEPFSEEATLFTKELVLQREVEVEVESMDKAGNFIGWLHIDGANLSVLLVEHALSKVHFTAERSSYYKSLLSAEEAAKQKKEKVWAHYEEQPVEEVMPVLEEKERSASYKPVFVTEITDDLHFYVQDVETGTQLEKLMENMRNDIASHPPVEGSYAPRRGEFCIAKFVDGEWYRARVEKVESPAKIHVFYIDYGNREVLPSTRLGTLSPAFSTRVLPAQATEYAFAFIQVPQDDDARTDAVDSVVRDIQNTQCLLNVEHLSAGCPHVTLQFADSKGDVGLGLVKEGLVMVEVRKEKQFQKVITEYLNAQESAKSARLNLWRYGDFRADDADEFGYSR

T2: SND1 (Mus musculus, UniProt Q78PY7)
T2 construct: endogenous in cells; host or cells: PyMT;Mtdh−/− (A9) or PyMT;Mtdh+/+ (A13) mouse mammary epithelial/tumor cells
T2 sequence (Q78PY7 1-910): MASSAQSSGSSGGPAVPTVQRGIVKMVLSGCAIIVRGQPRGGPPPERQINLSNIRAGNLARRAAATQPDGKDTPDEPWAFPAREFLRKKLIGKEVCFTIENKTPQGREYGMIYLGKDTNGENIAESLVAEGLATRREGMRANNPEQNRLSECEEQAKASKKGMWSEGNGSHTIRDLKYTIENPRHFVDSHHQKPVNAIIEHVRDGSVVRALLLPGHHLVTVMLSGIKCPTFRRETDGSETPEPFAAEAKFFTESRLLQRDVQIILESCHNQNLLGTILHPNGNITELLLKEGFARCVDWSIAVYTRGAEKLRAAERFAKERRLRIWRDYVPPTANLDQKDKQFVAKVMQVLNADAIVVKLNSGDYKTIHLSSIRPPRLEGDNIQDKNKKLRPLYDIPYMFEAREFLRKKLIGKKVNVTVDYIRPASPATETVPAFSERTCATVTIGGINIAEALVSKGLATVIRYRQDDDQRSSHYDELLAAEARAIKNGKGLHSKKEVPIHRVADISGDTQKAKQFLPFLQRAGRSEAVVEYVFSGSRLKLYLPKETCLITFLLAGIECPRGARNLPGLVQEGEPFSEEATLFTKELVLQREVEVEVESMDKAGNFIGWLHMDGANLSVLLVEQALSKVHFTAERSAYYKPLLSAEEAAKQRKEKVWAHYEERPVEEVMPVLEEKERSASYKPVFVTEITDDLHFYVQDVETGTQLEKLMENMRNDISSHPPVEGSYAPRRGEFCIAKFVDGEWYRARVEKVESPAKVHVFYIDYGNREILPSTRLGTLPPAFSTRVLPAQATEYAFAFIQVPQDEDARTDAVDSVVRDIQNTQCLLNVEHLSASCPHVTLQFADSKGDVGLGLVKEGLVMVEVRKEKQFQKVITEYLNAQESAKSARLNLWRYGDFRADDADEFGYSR

B1: murine TPM1: murine Mtdh triple mutant D386R, D390R, W391D (protein, UniProt Q80WJ7 1-579, looked up, variant D386R D390R W391D)
Protein LYRIC: MAARSWQDELAQQAEEGSARLRELLSVGLGFLRTELGLDLGLEPKRYPGWVILVGTGALGLLLLFLLGYGWAAACAGARKKRRSPPRKREEAAPPTPAPDDLAQLKNLRSEEQKKKNRKKLPEKPKPNGRTVEVPEDEVVRNPRSITAKQAPETDKKNEKSKKNKKKSKSDAKAVQNSSRHDGKEVDEGAWETKISHREKRQQRKRDKVLTDSGSLDSTIPGIENIITVTTEQLTTASFPVGSKKNKGDSHLNVQVSNFKSGKGDSTLQVSSRLNENLTVNGGGWSEKSVKLSSQLSEEKWNSVPPASAGKRKTEPSAWTQDTGDTNANGKDWGRNWSDRSIFSGIGSTAEPVSQSTTSDYQWDVSRNQPYIDDEWSGLNGLSSARPSSRDNAPAEEWGNWVDEDRASLLKSQEPISNDQKVSDDDKEKGEGALPTGKSKKKKKKKKKQGEDNSHTQDTEDLEKDTREELPVNTSKARPKQEKACSLKTMSTSDPAEVLIKNSQPVKTLPPAISAEPSITLSKGDSDNSSSQVPPMLQDTDKPKSNAKQNSVPPSQTKSETNWESPKQIKKKKKARRET
B2: murine TPM2: murine Mtdh triple mutant E396R, E397R, W398D (protein, UniProt Q80WJ7 1-579, looked up, variant E396R E397R W398D)
Protein LYRIC: B1 Protein LYRIC with R386D, R390D, D391W, E396R, E397R, W398D
B3: murine W401A: murine MTDH mutant W398A, corresponding to human W401A (protein)
chain: B1 Protein LYRIC with R386D, R390D, D391W, W398A
B4: murine W394A: murine MTDH mutant W391A, corresponding to human W394A (protein)
chain: B1 Protein LYRIC with R386D, R390D, D391A

How the values were obtained:
MTDH-SND1 interaction = biological target: T1, MTDH-SND1 interaction; assay: Immunoprecipitation assay: elution or co-incubation with MTDH peptides, western blot; assay type: biochemical; details: 50 uM of peptides; IP of HA-SND1 from 293T (HA-SND1 + MYC-MTDH) and of endogenous SND1 from MDA-MB-231
Procedure: 293T cells co-transfected with HA-SND1 and MYC-MTDH. After 48 hr cells were collected and subjected to IP assay. (FIG. 26A, FIG. 26B) Cell lysate was incubated with anti-HA antibody or IgG overnight followed by 2 hr incubation with Protein A/G beads to pull down HA-SND1 protein. The beads was washed with lysis buffer and split into 5 fractions. Each fraction was eluted with buffer or indicated peptides for 30 min. The elution fractions and beads were collected for WB. (FIG. 26C, FIG. 26D) Cell lyaste was split into 6 fractions, one of them was incubated with IgG and the rest were incubated with anti-HA antibody plus either buffer or indicated peptides. After 24 hr, the lysate was incubated with Protein A/G beads then the beads were washed in wash buffer.
Breast cancer cells MDA-MB231 were collected and subjected to IP assay. (FIG. 27A) Cell lysate was incubated with anti-SND1 antibody or IgG overnight followed by 2 hr incubation with Protein A/G beads to pull down endogenous SND1 protein. The beads were washed with lysis buffer and split into 5 fractions. Each fraction was eluted with buffer or indicated peptides for 30 min. The elution fractions and beads were collected for WB. (FIG. 27B) Cell lyaste was split into 5 fractions, and incubated with anti-SND1 antibody plus either buffer or indicated peptides. After 24 hr, the lysate was incubated with Protein A/G beads then the beads were washed in wash buffer.
293 T cells were co-transfected with HA-SND1 and MYC-MTDH. After 48 hours, the cells were collected and subject to immunoprecipitation assay. Cell lysate was incubated with anti-HA antibody or IgG overnight followed by a two hour incubation with Protein A/G beads to pull down HA-SND1 protein. The beads were washed with lysis buffer and split into five fractions. Each fraction was eluted with buffer or indicated peptides (i.e., Peptide—wt (PNSDWNAPAEEWGNW, SEQ ID NO: 16); Peptide-394A (PNSDANAPAEEWGNW, SEQ ID NO: 17); Peptide-401A (PNSDWNAPAEEAGNW, SEQ ID NO: 18) and Peptide-MT (PNSDANAPAEEAGNW, SEQ ID NO: 19) for 30 minutes.
The elution fractions and beads were collected for western blot. (FIGS. 26C and 26D) Cell lyaste was split into 6 fractions. One of the fractions was incubated with IgG and the rest were incubated with anti-HA antibody plus either buffer or indicated peptides. After 24 hours, the lysate was incubated with Protein A/G beads then the beads was washed followed by wash buffer. 50 uM of peptides was used in all the assays.
The interaction interruption effects was confirmed by endogenous immunoprecipitation (IP) of a breast cancer cell line. Briefly, cell lysates from the breast cancer cell line MDA-MB-231 were collected and subjected to IP assay. […]

SND1 = biological target: T2, SND1; assay: Anti-MTDH immunoprecipitation from PyMT;Mtdh−/− tumor cells reconstituted with murine MTDH; assay type: cell-based; details: stably expressed in PyMT;Mtdh−/− tumor cells
Procedure: (FIG. 8A, FIG. 8E) Lysates from PyMT;Mtdh−/− MECs reconstituted with vector control, WT or mutant murine MTDH were immunoprecipitated with anti-MTDH antibody and immunoblotted for indicated proteins. (FIG. 8B, FIG. 8F) Mammosphere assays were performed with PyMT;Mtdh−/− pMECs reconstituted with indicated Mtdh constructs. (FIG. 8C, FIG. 8D, FIG. 8G, FIG. 8H) In vivo tumor formation (FIG. 8C, FIG. 8G for tumor incidence; FIG. 8D, FIG. 8H for tumor volumes) were performed at limiting numbers using PyMT;Mtdh−/− pMECs reconstituted with indicated WT or mutant MTDH. *Note: mouse W391D MTDH corresponds to human W394D MTDH; and mouse W398D MTDH corresponds to human W401D MTDH. Statistics: (FIG. 8B, […]) Student's t-test. (FIG. 8C, FIG. 8G) Limiting dilution analysis. (FIG. 8D, FIG. 8H) Mann-Whitney test. Data represent mean±SEM. ***p<0.001, **p<0.01, *p<0.05.
(FIG. 23A) Lysates from PyMT;Mtdh−/− tumor cells reconstituted with vector control, WT or mutant murine MTDH were immunoprecipitated with anti-MTDH antibody and immunoblotted for indicated proteins. Note all amino acid annotations are based on human MTDH. W394 and W401 of human MTDH correspond to W391 and W398 in murine MTDH, respectively. (FIG. 23B) Mammosphere assays were performed with PyMT;Mtdh−/− tumor cells reconstituted with indicated MTDH constructs. (FIG. 23C-E) In vivo tumor formation (FIG. 23C for tumor incidence; FIG. 23D, FIG. 23E for tumor volumes) were performed at limiting numbers using PyMT;Mtdh−/− tumor cells reconstituted with indicated WT or mutant MTDH. Statistics: (FIG. 23B) Student's t-test. Data represent mean±SEM. (FIG. 23C) Limiting dilution analysis. (FIG. 23D, FIG. 23E) Mann-Whitney test. **p<0.01, *p<0.05.
Immunoprecipitation and western blot For immunoprecipitation (IP) experiments, cultured cells were washed in cold PBS and lysed in lysis buffer (20 mM Tris pH 7.4, 0.15 M NaCl, 1 mM EDTA, 1 mM EGTA, 1% Tx-100, 0.0025 M Na2P2O7, 1 mM α-glycerolphosphate, 1 mM Na3VO4, and 1 mM NaF) with an EDTA-free protease inhibitor mixture (Roche Applied Science) and PMSF. Cell lysates were then incubated on ice for 10 min, centrifuged, and precleared by incubating with protein A/G beads (Santa Cruz Biotechnology) for 1 h at 4° C. For IP bead preparation, 30 μl of protein A/G beads were incubated with 5 μg of antibodies for 2 h at 4° C. IPs were carried out for overnight at 4° C., and beads were centrifuged, washed and subsequently boiled for 5 min in SDS protein loading buffer to elute bound protein. IP lysates were subjected to western blotting with indicated antibodies. […]

Molecule | block of MTDH-SND1 interaction by peptide (MTDH-SND1 interaction) | interaction of murine MTDH mutants with SND1 (SND1)
PNSDANAPAEEWGNW (listed as Homo sapiens) [single point mutation W394A] | have no effect in interrupting the interaction of MTDH with SND1 | 
B1 |  | lost the ability to interact with SND1
B2 |  | lost the ability to interact with SND1
B3 |  | completely lost the ability to interact with SND1
B4 |  | completely lost the ability to interact with SND1
